# In article PMC4894940, “The function of the two-pore channel TPC1 depends on dimerization of its carboxy-terminal helix” (Cellular and Molecular Life Sciences: CMLS, 2016):
# Numbering of substitutions follows the chain as printed. In names and notes the source's numbering stands.
# B1: TPC1ΔC8: truncated TPC1 containing residues 1–725 (protein, UniProt Q94KI8 1-725, looked up, fragment)
# chain: MEDPLIGRDSLGGGGTDRVRRSEAITHGTPFQKAAALVDLAEDGIGLPVEILDQSSFGESARYYFIFTRLDLIWSLNYFALLFLNFFEQPLWCEKNPKPSCKDRDYYYLGELPYLTNAESIIYEVITLAILLVHTFFPISYEGSRIFWTSRLNLVKVACVVILFVDVLVDFLYLSPLAFDFLPFRIAPYVRVIIFILSIRELRDTLVLLSGMLGTYLNILALWMLFLLFASWIAFVMFEDTQQGLTVFTSYGATLYQMFILFTTSNNPDVWIPAYKSSRWSSVFFVLYVLIGVYFVTNLILAVVYDSFKEQLAKQVSGMDQMKRRMLEKAFGLIDSDKNGEIDKNQCIKLFEQLTNYRTLPKISKEEFGLIFDELDDTRDFKINKDEFADLCQAIALRFQKEEVPSLFEHFPQIYHSALSQQLRAFVRSPNFGYAISFILIINFIAVVVETTLDIEESSAQKPWQVAEFVFGWIYVLEMALKIYTYGFENYWREGANRFDFLVTWVIVIGETATFITPDENTFFSNGEWIRYLLLARMLRLIRLLMNVQRYRAFIATFITLIPSLMPYLGTIFCVLCIYCSIGVQVFGGLVNAGNKKLFETELAEDDYLLFNFNDYPNGMVTLFNLLVMGNWQVWMESYKDLTGTWWSITYFVSFYVITILLLLNLVVAFVLEAFFTELDLEEEEKCQGQDSQEKRNRRRSAGSKSRSQRVDTLLHHMLGDELSK
# modifications: GFP fusion
# B2: TPC1-3LA: leucines L714, 715, 719 of TPC1 replaced by alanine (protein, UniProt Q94KI8 1-733, looked up, variant L714A L715A L719A)
# Two pore calcium channel …: MEDPLIGRDSLGGGGTDRVRRSEAITHGTPFQKAAALVDLAEDGIGLPVEILDQSSFGESARYYFIFTRLDLIWSLNYFALLFLNFFEQPLWCEKNPKPSCKDRDYYYLGELPYLTNAESIIYEVITLAILLVHTFFPISYEGSRIFWTSRLNLVKVACVVILFVDVLVDFLYLSPLAFDFLPFRIAPYVRVIIFILSIRELRDTLVLLSGMLGTYLNILALWMLFLLFASWIAFVMFEDTQQGLTVFTSYGATLYQMFILFTTSNNPDVWIPAYKSSRWSSVFFVLYVLIGVYFVTNLILAVVYDSFKEQLAKQVSGMDQMKRRMLEKAFGLIDSDKNGEIDKNQCIKLFEQLTNYRTLPKISKEEFGLIFDELDDTRDFKINKDEFADLCQAIALRFQKEEVPSLFEHFPQIYHSALSQQLRAFVRSPNFGYAISFILIINFIAVVVETTLDIEESSAQKPWQVAEFVFGWIYVLEMALKIYTYGFENYWREGANRFDFLVTWVIVIGETATFITPDENTFFSNGEWIRYLLLARMLRLIRLLMNVQRYRAFIATFITLIPSLMPYLGTIFCVLCIYCSIGVQVFGGLVNAGNKKLFETELAEDDYLLFNFNDYPNGMVTLFNLLVMGNWQVWMESYKDLTGTWWSITYFVSFYVITILLLLNLVVAFVLEAFFTELDLEEEEKCQGQDSQEKRNRRRSAGSKSRSQRVDTAAHHMAGDELSKPECSTSDT
# modifications: C-terminal GFP
# notes: leucines L714, 715, 719 of TPC1 replaced by alanine
# B3: TPC1-S706A (protein, UniProt Q94KI8 1-733, looked up, variant S706A)
# Two pore calcium channel …: B2 Two pore calcium channel … with S706A, A714L, A715L, A719L
# B4: TPC1-S706D (protein, UniProt Q94KI8 1-733, looked up, variant S706D)
# Two pore calcium channel …: B2 Two pore calcium channel … with S706D, A714L, A715L, A719L
# How the values were obtained:
# Assay type in all cases: cell-based, Arabidopsis thaliana
# [1] = system: slow vacuolar (SV) currents in tpc1-2 vacuoles; test: Whole-vacuolar patch-clamp of TPC1 variants (SV currents); conditions: for whole-vacuolar SV currents: GFP-fusion in tpc1-2 vacuoles, 1 mM CaCl2 bath, pH 7.5; for reduction of whole-vacuolar current amplitude: relative to TPC1 wild type
# Procedure: (§1) Expression of GFP-fusion proteins for electrophysiological measurements or confocal microscopy was performed in A. thaliana tpc1-2 mesophyll protoplasts as described. Briefly, leaves were enzymatically digested to release mesophyll protoplasts, which were then transformed by the polyethylene glycol method. Protoplasts were used for electrophysiological measurements and subcellular localization of GFP fluorescence 2–4 days after transformation.
# (§2) Patch-clamp experiments were performed on transformed vacuoles harboring two-pore channels as identified by GFP fluorescence. The pipette (luminal) solution consisted of 100 mM K-gluconate, 2 mM MgCl2, 10 mM EGTA, 10 mM MES, pH 5.5/Tris. The bath (cytosolic) solution contained 50 mM K-gluconate, 1 mM CaCl2, 1 mM MgCl2, 2 mM DTT, 10 mM HEPES, pH 7.5/Tris. Solutions were adjusted to 430 mosmol/kg by adding D-sorbitol. For analysis of the TPC1-S706 mutants two further calcium concentrations of the bath solution were used in which 1 mM CaCl2 was substituted by 0.2 mM or 0.05 mM CaCl2, respectively. Competition assays using the CTH peptide were performed on endogenous TPC1 channels in vacuoles isolated from Col-0 plants. Peptides were dissolved at 10 mM in bath solution supplemented with 1 % DMSO and 0.1 % pluronic, and diluted >600-fold for application in patch-clamp recordings. Currents were recorded either in the whole-vacuolar or cytosolic side-out configuration of the patch-clamp technique, using an EPC10 amplifier and the program PULSE (HEKA electronics, Lambrecht, Germany). Recordings and data analysis were performed as described earlier. Relative open probabilities (P o) were determined from tail currents at −53 mV, following pulses to the different test voltages. Tail currents were normalized to the maximum values at 1 mM Ca^2+, plotted as a function of the applied test voltage, and fitted according to the Boltzmann equation: PO=A/1+exp^zF/RT·(Vo-V) where V o and z are parameters for the voltage at half-maximum open probability and the apparent number of gating charges, respectively, and A describes the maximum conductance that is reached under the experimental conditions.
# tonoplast = test: Confocal localization of GFP-fusions in tpc1-2 mesophyll protoplasts; conditions: GFP-fusion in tpc1-2 mesophyll protoplasts
# Procedure: as §1
# Fluorescence signals were detected and documented with a TCS SP2 confocal laser scanning microscope and the Leica Confocal Software (Leica Microsystems). A 488 nm Argon laser was used for excitation of GFP and of the auto-fluorescence of chlorophyll. GFP-signals were detected from 500 to 556 nm and chlorophyll signals from 675 to 767 nm. Venus was excited with a […] and detected in the range from 520 to 556 nm, the corresponding chlorophyll signals were detected from 637 to 736 nm. Images were processed with Photoshop (Adobe Systems).
# [2] = system: excised cytosolic side-out vacuolar membrane patches of tpc1-2 cells; test: Excised cytosolic side-out patch recordings of TPC1 variants; conditions: for current remaining following reduction of Ca2+ from 1 mM to 200 µM: at 107 mV, Ca2+ reduced from 1 mM to 200 µM (n = 3–7)
# Procedure: as §1, §2
Molecule,whole-vacuolar SV currents [1],subcellular localization of GFP-fusion (tonoplast),"single-channel conductance ([2]; excised cytosolic side-out patch, tpc1-2 cell, linear fit) [pS]","macroscopic currents in excised patches ([2]; excised patches, tpc1-2 cells)",reduction of whole-vacuolar current amplitude [1] [%],current remaining following reduction of Ca2+ from 1 mM to 200 µM [2] [%]
B1,wild type like,localized in the tonoplast,,,,
B2,loss of SV currents to a similar extent as TPC1-3LP,,58,no macroscopic currents were resolved,,
B3,,,,,53,28 ± 3
B4,,,,,58,24 ± 4
